Results reported in the Immune Epitope Database (IEDB).
Blank lines part the entries; values can stand above or below the sequence they belong to.

What was measured:
HLA-A*01:01 = experiment: IEDB peptide-MHC binding, purified MHC/direct/fluorescence; filed as Kd, often an IC50 or EC50 that approximates it; ≥ and ≤ were set here for values at or beyond the usual limits of such assays
HLA-A*02:01 [1] = experiment: as above
HLA-A*03:01 = experiment: as above
HLA-A*11:01 = experiment: as above
HLA-A*26:01 = experiment: as above
HLA-A*31:01 [2] = experiment: as above
HLA-A*69:01 = experiment: as above
HLA-B*07:02 [3] = experiment: as above
HLA-B*08:01 = experiment: as above
HLA-B*15:01 = experiment: as above
HLA-B*27:05 = experiment: as above
HLA-B*40:01 = experiment: as above
HLA-B*44:02 = experiment: as above
HLA-B*58:01 = experiment: as above
HLA-B*07:02 [4] = experiment: IEDB peptide-MHC binding, purified MHC/competitive/radioactivity; filed as Kd, often an IC50 or EC50 that approximates it; ≥ and ≤ were set here for values at or beyond the usual limits of such assays
HLA-B*35:01 = experiment: as above
HLA-B*44:03 = experiment: as above; conditions: source organism: Mammarenavirus lassaense
HLA-B*51:01 [5] = experiment: as above
HLA-B*53:01 = experiment: as above
HLA-B*54:01 = experiment: as above
HLA-A*24:03 = experiment: IEDB peptide-MHC binding, purified MHC/direct/fluorescence; filed as Kd, often an IC50 or EC50 that approximates it; ≥ and ≤ were set here for values at or beyond the usual limits of such assays
HLA-B*51:01 [6] = experiment: IEDB peptide-MHC binding, purified MHC/competitive/fluorescence; filed as Kd, often an IC50 or EC50 that approximates it; ≥ and ≤ were set here for values at or beyond the usual limits of such assays; conditions: source organism: Campylobacter jejuni subsp. jejuni NCTC 11168 = ATCC 700819
HLA-A*02:01 [7] = experiment: IEDB peptide-MHC binding, purified MHC/competitive/radioactivity; filed as Kd, often an IC50 or EC50 that approximates it; ≥ and ≤ were set here for values at or beyond the usual limits of such assays; conditions: source organism: Triticum aestivum
HLA-A*02:02 = experiment: as above; conditions: source organism: Triticum aestivum
HLA-A*02:03 = experiment: as above; conditions: source organism: Triticum aestivum
HLA-A*02:06 = experiment: as above; conditions: source organism: Triticum aestivum
HLA-A*68:02 = experiment: as above; conditions: source organism: Triticum aestivum
HLA-A*30:02 = experiment: as above; conditions: source organism: Dengue virus 3 Martinique/1243/1999
HLA-B*46:01 = experiment: IEDB peptide-MHC binding, purified MHC/competitive/fluorescence; filed as Kd, often an IC50 or EC50 that approximates it; ≥ and ≤ were set here for values at or beyond the usual limits of such assays
HLA-A*31:01 [8] = experiment: IEDB peptide-MHC binding, purified MHC/competitive/radioactivity; filed as Kd, often an IC50 or EC50 that approximates it; ≥ and ≤ were set here for values at or beyond the usual limits of such assays; conditions: source organism: SARS coronavirus Tor2
HLA-A*33:01 = experiment: as above; conditions: source organism: SARS coronavirus Tor2
HLA-A*68:01 = experiment: as above; conditions: source organism: SARS coronavirus Tor2
[9] = source organism: Vibrio cholerae
[10] = source organism: Mammarenavirus lassaense
[11] = source organism: Giardia lamblia ATCC 50803
[12] = source organism: Vaccinia virus WR
[13] = source organism: Triticum aestivum
[14] = source organism: SARS coronavirus Tor2
[15] = source organism: dengue virus type 3
[16] = source organism: Salmonella enterica subsp. enterica serovar Typhimurium

Sequence: AEIDRSFKP
Kd (HLA-A*01:01; [9]): ≥ 20000 nM
Kd (HLA-A*02:01 [1]; [9]): ≥ 20000 nM
Kd (HLA-A*03:01; [9]): ≥ 20000 nM
Kd (HLA-A*11:01; [9]): ≥ 20000 nM
Kd (HLA-A*26:01; [9]): ≥ 20000 nM
Kd (HLA-A*31:01 [2]; [9]): ≥ 20000 nM
Kd (HLA-A*69:01; [9]): ≥ 20000 nM
Kd (HLA-B*07:02 [3]; [9]): ≥ 20000 nM
Kd (HLA-B*08:01; [9]): ≥ 20000 nM
Kd (HLA-B*15:01; [9]): ≥ 20000 nM
Kd (HLA-B*27:05; [9]): ≥ 20000 nM
Kd (HLA-B*40:01; [9]): 1510 nM
Kd (HLA-B*44:02; [9]): ≥ 20000 nM
Kd (HLA-B*58:01; [9]): ≥ 20000 nM

Sequence: CPNSYDSIM
Kd (HLA-B*07:02 [4]; [10]): 142 nM
Kd (HLA-B*35:01; [10]): 8.12 nM
Kd (HLA-B*44:03): 7570 nM
Kd (HLA-B*51:01 [5]; [10]): 2270 nM
Kd (HLA-B*53:01; [10]): 41.9 nM
Kd (HLA-B*54:01; [10]): 1590 nM

Sequence: DIIRAHPWF
Kd (HLA-A*01:01; [11]): ≥ 20000 nM
Kd (HLA-A*03:01; [11]): 8160 nM
Kd (HLA-A*11:01; [11]): ≥ 20000 nM
Kd (HLA-A*26:01; [11]): 286 nM
Kd (HLA-A*31:01 [2]; [11]): ≥ 20000 nM
Kd (HLA-A*69:01; [11]): ≥ 20000 nM
Kd (HLA-B*07:02 [3]; [11]): ≥ 20000 nM
Kd (HLA-B*08:01; [11]): 9920 nM
Kd (HLA-B*15:01; [11]): 16600 nM
Kd (HLA-B*27:05; [11]): ≥ 20000 nM
Kd (HLA-B*40:01; [11]): ≥ 20000 nM
Kd (HLA-B*44:02; [11]): ≥ 20000 nM
Kd (HLA-B*58:01; [11]): ≥ 20000 nM

Sequence: DPMVIENGI
Kd (HLA-B*07:02 [4]; [12]): 388 nM
Kd (HLA-B*35:01; [12]): 2360 nM
Kd (HLA-B*51:01 [5]; [12]): 34.6 nM
Kd (HLA-B*53:01; [12]): 3860 nM
Kd (HLA-B*54:01; [12]): 485 nM

Sequence: DPSERVFKKI
Kd (HLA-B*07:02 [4]; [12]): ≥ 69600 nM
Kd (HLA-B*35:01; [12]): ≥ 69900 nM
Kd (HLA-B*51:01 [5]; [12]): ≥ 46700 nM
Kd (HLA-B*53:01; [12]): 18200 nM
Kd (HLA-B*54:01; [12]): ≥ 43300 nM

Sequence: FPGDKTSYWV
Kd (HLA-B*07:02 [4]; [12]): 261 nM
Kd (HLA-B*35:01; [12]): 88.8 nM
Kd (HLA-B*51:01 [5]; [12]): 50.1 nM
Kd (HLA-B*53:01; [12]): 14.4 nM
Kd (HLA-B*54:01; [12]): 5.36 nM

Kd (HLA-B*07:02 [4]; [13]): ≥ 37400 nM
Kd (HLA-B*35:01; [13]): ≥ 87800 nM
Kd (HLA-B*51:01 [5]; [13]): ≥ 30600 nM
Kd (HLA-B*53:01; [13]): ≥ 87700 nM
Kd (HLA-B*54:01; [13]): ≥ 87700 nM
Sequence: FPGQQQPF

Sequence: FPQAAPHGVV
Kd (HLA-B*07:02 [4]; [14]): 82.2 nM
Kd (HLA-B*35:01; [14]): 1680 nM
Kd (HLA-B*51:01 [5]; [14]): 159 nM
Kd (HLA-B*53:01; [14]): 4140 nM
Kd (HLA-B*54:01; [14]): 15.8 nM

Sequence: FPSIFSTEV
Kd (HLA-B*07:02 [4]; [10]): 244 nM
Kd (HLA-B*35:01; [10]): 97.7 nM
Kd (HLA-B*51:01 [5]; [10]): 330 nM
Kd (HLA-B*53:01; [10]): 57.3 nM
Kd (HLA-B*54:01; [10]): 4.42 nM

Sequence: IYKNKISDF
Kd (HLA-A*24:03; source organism: Cryptosporidium parvum): 130 nM

Sequence: KPRSQMETDF
Kd (HLA-B*07:02 [4]; [14]): 78.8 nM
Kd (HLA-B*35:01; [14]): 19500 nM
Kd (HLA-B*51:01 [5]; [14]): 2500 nM
Kd (HLA-B*53:01; [14]): ≥ 53700 nM
Kd (HLA-B*54:01; [14]): ≥ 49300 nM

Sequence: KPVDTSNSF
Kd (HLA-B*07:02 [4]; [14]): 20.7 nM
Kd (HLA-B*35:01; [14]): 266 nM
Kd (HLA-B*51:01 [5]; [14]): 898 nM
Kd (HLA-B*53:01; [14]): 151 nM
Kd (HLA-B*54:01; [14]): 5770 nM

Kd (HLA-B*07:02 [4]; [13]): ≥ 21200 nM
Kd (HLA-B*35:01; [13]): 41.3 nM
Kd (HLA-B*51:01 [5]; [13]): 5760 nM
Kd (HLA-B*53:01; [13]): 1070 nM
Kd (HLA-B*54:01; [13]): 2820 nM
Sequence: LPAMCNVY

Sequence: LSILPFFIV
Kd (HLA-B*51:01 [6]): ≥ 20000 nM

Sequence: MPICMDVRAI
Kd (HLA-B*07:02 [4]; [14]): 300 nM
Kd (HLA-B*35:01; [14]): 94.8 nM
Kd (HLA-B*51:01 [5]; [14]): 2.24 nM
Kd (HLA-B*53:01; [14]): 5.98 nM
Kd (HLA-B*54:01; [14]): 3.96 nM

Sequence: MPTYKHLIMF
Kd (HLA-B*07:02 [4]; [12]): 21.8 nM
Kd (HLA-B*35:01; [12]): 20.6 nM
Kd (HLA-B*51:01 [5]; [12]): 843 nM
Kd (HLA-B*53:01; [12]): 18 nM
Kd (HLA-B*54:01; [12]): 23.6 nM

Sequence: NPLFHGGEPI
Kd (HLA-B*07:02 [4]; [12]): 8.02 nM
Kd (HLA-B*35:01; [12]): 3550 nM
Kd (HLA-B*51:01 [5]; [12]): 4460 nM
Kd (HLA-B*53:01; [12]): 312 nM
Kd (HLA-B*54:01; [12]): 382 nM

Sequence: PYATGPLVF
Kd (HLA-A*24:03; source organism: Mycobacterium tuberculosis): 382 nM

Sequence: SPYYIRKESY
Kd (HLA-B*07:02 [4]; [12]): 65.4 nM
Kd (HLA-B*35:01; [12]): 101 nM
Kd (HLA-B*51:01 [5]; [12]): ≥ 69600 nM
Kd (HLA-B*53:01; [12]): 646 nM
Kd (HLA-B*54:01; [12]): 669 nM

Kd (HLA-A*02:01 [7]): 256 nM
Kd (HLA-A*02:02): 4.46 nM
Kd (HLA-A*02:03): 138 nM
Kd (HLA-A*02:06): 14.3 nM
Kd (HLA-A*68:02): 206 nM
Sequence: SQVSFQQPL

Sequence: SYLQAIGIL
Kd (HLA-A*24:03; source organism: Listeria monocytogenes): 1.1 nM

Sequence: TSEHGGRAY
Kd (HLA-A*01:01; [15]): 337 nM
Kd (HLA-A*02:01 [1]; [15]): ≥ 20000 nM
Kd (HLA-A*03:01; [15]): ≥ 20000 nM
Kd (HLA-A*11:01; [15]): ≥ 20000 nM
Kd (HLA-A*31:01 [2]; [15]): ≥ 20000 nM
Kd (HLA-A*69:01; [15]): ≥ 20000 nM
Kd (HLA-B*07:02 [3]; [15]): ≥ 20000 nM
Kd (HLA-B*15:01; [15]): 248 nM
Kd (HLA-B*27:05; [15]): ≥ 20000 nM
Kd (HLA-B*40:01; [15]): ≥ 20000 nM
Kd (HLA-B*44:02; [15]): ≥ 20000 nM
Kd (HLA-B*58:01; [15]): ≥ 20000 nM
Kd (HLA-A*30:02): ≥ 67200 nM

Sequence: WPVTLACFVL
Kd (HLA-B*07:02 [4]; [14]): 956 nM
Kd (HLA-B*35:01; [14]): 71.5 nM
Kd (HLA-B*51:01 [5]; [14]): 9.11 nM
Kd (HLA-B*53:01; [14]): 73.8 nM
Kd (HLA-B*54:01; [14]): 3560 nM

Sequence: YIFFASFYY
Kd (HLA-A*02:01 [1]; source organism: SARS-CoV1): 6820 nM
Kd (HLA-A*26:01; source organism: SARS-CoV1): 527 nM
Kd (HLA-A*69:01; source organism: SARS-CoV1): 738 nM
Kd (HLA-B*15:01; source organism: SARS-CoV1): 3710 nM
Kd (HLA-B*58:01; source organism: SARS-CoV1): 3120 nM
Kd (HLA-B*46:01; source organism: SARS-CoV1): ≥ 20000 nM
Kd (HLA-A*31:01 [8]): 784 nM
Kd (HLA-A*33:01): 641 nM
Kd (HLA-A*68:01): 1.7 nM

Sequence: YPEYNRAVKF
Kd (HLA-B*07:02 [4]; [12]): 122 nM
Kd (HLA-B*35:01; [12]): 808 nM
Kd (HLA-B*51:01 [5]; [12]): 857 nM
Kd (HLA-B*53:01; [12]): 41.7 nM
Kd (HLA-B*54:01; [12]): 473 nM

Sequence: YQKKNASVY
Kd (HLA-B*15:01; [16]): 330 nM
Kd (HLA-B*27:05; [16]): 5060 nM
Kd (HLA-B*46:01; source organism: Salmonella enterica subsp. enterica serovar Typhi): 293 nM
